The source of these data is paper PMC8046669, “Structural basis of nucleosome transcription mediated by Chd1 and FACT” (Nature Structural & Molecular Biology, 2021).

The test concerns the target T1, S. cerevisiae FACT (heterodimer of Spt16 and Pob3) (S. cerevisiae, UniProt P32558 1-1035; Q04636 1-552).
T1 construct: Spt16, subunit of FACT, S. cerevisiae; Pob3, subunit of FACT, S. cerevisiae
Description: SEC; size exclusion chromatography runs of Chd1 constructs with FACT, fractions analysed by SDS-PAGE. Conditions: both partners purified. On the technique in general: SEC sorts molecules by how far they enter the pores of the column.

T1 sequence (P32558 whole entry, chain 1 of 2): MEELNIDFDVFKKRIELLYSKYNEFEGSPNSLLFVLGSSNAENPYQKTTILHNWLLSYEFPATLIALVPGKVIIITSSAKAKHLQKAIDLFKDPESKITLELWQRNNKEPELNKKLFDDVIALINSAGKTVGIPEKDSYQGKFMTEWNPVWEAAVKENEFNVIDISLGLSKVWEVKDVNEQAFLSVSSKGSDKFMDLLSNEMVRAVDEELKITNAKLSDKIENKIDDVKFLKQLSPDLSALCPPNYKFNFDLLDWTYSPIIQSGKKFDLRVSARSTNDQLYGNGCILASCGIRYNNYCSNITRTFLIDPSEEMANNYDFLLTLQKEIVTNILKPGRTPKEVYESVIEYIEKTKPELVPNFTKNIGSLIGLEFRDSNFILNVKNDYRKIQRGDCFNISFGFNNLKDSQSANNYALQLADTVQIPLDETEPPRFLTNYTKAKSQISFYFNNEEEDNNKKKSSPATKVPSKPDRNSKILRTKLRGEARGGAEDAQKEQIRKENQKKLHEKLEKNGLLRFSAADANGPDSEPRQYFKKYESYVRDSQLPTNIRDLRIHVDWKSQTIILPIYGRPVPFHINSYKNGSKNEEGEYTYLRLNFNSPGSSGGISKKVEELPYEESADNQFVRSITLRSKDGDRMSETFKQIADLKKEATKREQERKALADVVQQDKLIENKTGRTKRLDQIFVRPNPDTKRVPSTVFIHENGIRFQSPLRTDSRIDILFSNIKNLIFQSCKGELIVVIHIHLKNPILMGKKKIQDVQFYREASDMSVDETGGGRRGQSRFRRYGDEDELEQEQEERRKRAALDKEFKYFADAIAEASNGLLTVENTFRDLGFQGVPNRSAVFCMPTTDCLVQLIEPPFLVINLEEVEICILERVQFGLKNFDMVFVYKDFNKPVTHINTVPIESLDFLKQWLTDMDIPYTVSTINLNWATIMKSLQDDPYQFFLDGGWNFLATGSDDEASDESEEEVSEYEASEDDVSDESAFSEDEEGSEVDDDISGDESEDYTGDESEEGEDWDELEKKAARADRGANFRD
T1 sequence (Q04636 whole entry, chain 2 of 2): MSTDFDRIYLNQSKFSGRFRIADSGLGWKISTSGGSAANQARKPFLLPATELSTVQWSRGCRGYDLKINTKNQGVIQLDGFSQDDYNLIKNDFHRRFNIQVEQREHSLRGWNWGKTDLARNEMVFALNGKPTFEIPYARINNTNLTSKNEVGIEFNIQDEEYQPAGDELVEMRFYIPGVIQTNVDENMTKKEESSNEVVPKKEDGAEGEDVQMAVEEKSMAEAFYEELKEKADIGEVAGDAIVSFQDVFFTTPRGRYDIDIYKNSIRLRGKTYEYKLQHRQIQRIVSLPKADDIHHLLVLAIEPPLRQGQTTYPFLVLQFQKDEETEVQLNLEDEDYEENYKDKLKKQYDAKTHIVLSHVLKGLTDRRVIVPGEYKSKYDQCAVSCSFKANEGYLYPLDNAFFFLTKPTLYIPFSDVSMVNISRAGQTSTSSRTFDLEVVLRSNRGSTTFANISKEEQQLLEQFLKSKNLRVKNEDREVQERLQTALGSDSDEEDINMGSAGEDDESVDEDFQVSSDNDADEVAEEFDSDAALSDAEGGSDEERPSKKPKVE

B1: S. cerevisiae Chd1 (enzyme)
chain: not shown
notes: Chd1, S. cerevisiae, chromatin remodeler; 1468 residues by the printed limits of the truncations; also called full-length Chd1
For the molecule B1, the binding result is recorded as “binds”.
